Measured values reported in patent US20200171068A1, “COMPOSITIONS COMPRISING APTAMERS AND NUCLEIC ACID PAYLOADS AND METHODS OF USING THE SAME” (Children's National Medical Center, priority 2017, published 2020).
“Also recorded” adds a separate entry of the source.

Tested on: TUBO cells
Assay: Growth and apoptosis of TUBO cells in vitro
Format: cell-based, mouse
Conditions: for percentage of apoptotic TUBO cells (Annexin V+): single agent
Procedure: FIG. 4A-FIG. 4J show how miR-26a chimera inhibits mouse breast cancer growth and protects from chemo-induced myelosuppression. FIG. 4A is a graph showing the binding of c-Kit-aptamer to TUBO cells. […] Cell count (left) and Annexin V^+ cells (%) (right) of the cells cultured with miR-26a chimera or the control (ctrl) were determined by flow cytometry. Asterisks denote the significant difference between ctrl chimera versus miR-26a chimera, and between ctrl chimera+5-FU versus miR-26a chimera+5FU. Data (mean±s.d.) were pooled from two experiments. FIG. 4C is a graph showing miR-26a expression in c-Kit^+ or c-Kit cells harvested from TUBO-derived tumors in BALB/c mice treated with miR-26a chimera (670 pmol/20 g) for 3 days. Data (mean+s.d.) were pooled from two experiments, involving a total of 6 mice per group. FIG. 4D is a graph showing Ezh2 expression in c-Kit^+ or c-Kit− cells harvested from TUBO-derived tumors in BALB/c mice treated with miR-26a chimera (670 pmol/20 g) for 3 days. Data (mean+s.d.) were pooled from two experiments, involving a total of 6 mice per group. FIG. 4E is a graph showing Bak1 expression in c-Kit^+ or c-Kit-cells harvested from TUBO-derived tumors in BALB/c mice treated with miR-26a chimera (670 pmol/20 g) for 3 days. Data (mean+s.d.) were pooled from two experiments, involving a total of 6 mice per group. FIG. 4F is a graph showing miR-26a expression in bone marrow (BM) detected by qPCR at 3 days after intravenous injection with the miR-26a chimera (670 pmol/20 g). Data (mean+s.d.) were pooled from two experiments, involving a total of 6 mice per group. FIG. 4G is a graph showing Bak expression in bone marrow (BM) detected by qPCR at 3 days after intravenous injection with the miR-26a chimera (670 pmol/20 g). Data (mean+s.d.) were pooled from two experiments, involving a total of 6 mice per group. FIG. 4H is a graph showing tumor volume over time. BALB/c mice bearing TUBO cells were treated with miR-26a chimera (670 pmol/20 g) (5 times, gray arrows) and 50 mg/kg 5-FU (3 times, dark grey arrows). Data (mean+s.d.) were pooled from two experiments, involving a total of 6 mice per group. There was significant difference between 5-FU only group versus miR-26a chimera only group (two way repeated-measures ANOVA followed by Bonferroni post-test for day0 to day18 (interaction p-value<0.001). FIG. 4I is a graph showing tumor volume over time after combinational treatment with 5-FU and chimeras. Data (mean+s.d.) were pooled from two experiments, involving a total of 6 mice per group. There was significant difference between 5-FU+ctrl chimera group versus 5-FU+miR-26a chimera group (two way repeated-measures ANOVA followed by Bonferroni post-test for day0 to day21, interaction p-value<0.0001). FIG. 4J is a graph showing the numbers of WBC and PLT in the tumor bearing mice 5 days after 5-FU treatment. Data (mean+s.d.) pooled from two experiments, involving a total of 6 mice per group. *P<0.05, **P<0.01.
A mouse TUBO breast cancer model was used to evaluate the therapeutic potential of miR-26a chimera for the myeloprotection and anti-tumor growth in breast cancer chemotherapy. Binding ability of an aptamer targeting mouse c-Kit to the TUBO cells was first tested by flow cytometry. […] To determine whether the mouse c-Kit-miR-26a chimera can inhibit the growth of mouse breast cancer cells in vitro, the TUBO cells were treated with increasing doses of miR-26a- or control-chimeras, and the viable cells counted under microscope at 2 days after the treatment.

O=c1[nH]cc(F)c(=O)[nH]1 [5-FU, 5-fluorouracil, reference compound]
reduction in tumor cell number (TUBO cells, 7 μM of 5-FU alone): less than 20% | percentage of apoptotic TUBO cells (Annexin V+): increased

B1: miR-26a chimera: mouse c-Kit DNA aptamer-C3-passenger RNA, passenger RNA-TEG-cholesterol and miR-26a-5p guide strand annealed (SEQ ID NO:6/7, 8, 9) (nucleic acid)
chain 1: GCTCAACGCGGGACGGCTCTCCCATTGAC
chain 2: CCUAUUCUGG
chain 3: GUUACUUGCACG
guide: UUCAAGUAAUCCAGGAUAGGCU
modifications: chemistry not fully specified
tumor cell number / effects, chimera in combination with 5-FU (TUBO cells, 5-FU 1 μg/ml (7 μM) plus chimera): enhanced these effects; also recorded: synergistically reduced tumor cells | IC50 (TUBO cells, viable cells counted 2 days after treatment, chimera alone, read-out: IC50, reduction in tumor cell number): ~83 nM | TUBO cell growth (cell count) (chimera alone, increasing doses): suppressed the growth; also recorded: dose-dependent reduction | percentage of apoptotic TUBO cells, chimera in combination with 5-FU (combination): increased | percentage of apoptotic TUBO cells (Annexin V+): induced apoptosis; also recorded: increased
